Data published in IntAct's records for PubMed 17187077.

B1: Nuclear receptor subfamily 2 group C member 1 (Mus musculus), Q505F1 (parent)
chain: MATIEEIAHQIIDQQMGEIVTEQQTGQKIQIVTALDHSTQGKQFILANHEGSTPGKVFLTTPDAAGVNQLFFTSPDLSAPHLQLLTEKSPDQGPNKVFDLCVVCGDKASGRHYGAITCEGCKGFFKRSIRKNLVYSCRGSKDCVINKHHRNRCQYCRLQRCIAFGMKQDSVQCERKPIEVSREKSSNCAASTEKIYIRKDLRSPLAATPTFVTDSETARSAGLLDSGMFVNIHPSGIKTEPAMLMAPDKAESCQGDLSTLASVVTSLANLGKAKDLSHCGGDMPVVQSLRNGDTSFGAFHHDIQTNGDVSRAFDTLAKALTPGESSACQSPEEGMEGSPHLIAGEPSFVEKEGPLLSESHVAFRLTMPSPMPEYLNVHYIGESASRLLFLSMHWALSIPSFQALGQENSISLVKAYWNELFTLGLAQCWQVMNVATILATFVNCLHSSLQQDKMSPERRKSLMEHIFKLQEFCNSMVKLCIDGHEYAYLKAIVLFSPDHPGLENMELIERFQEKAYVEFQDYITRTYPDDTYRLSRLLLRLPALRLMNATITEELFFKGLIGNVRIDSVIPHILKMEPADYNSQIIGHSL

Variants of: B1
Settings: with pias1_mouse Pias1, O88907
Sequence of pias1_mouse Pias1, O88907 (O88907 whole entry): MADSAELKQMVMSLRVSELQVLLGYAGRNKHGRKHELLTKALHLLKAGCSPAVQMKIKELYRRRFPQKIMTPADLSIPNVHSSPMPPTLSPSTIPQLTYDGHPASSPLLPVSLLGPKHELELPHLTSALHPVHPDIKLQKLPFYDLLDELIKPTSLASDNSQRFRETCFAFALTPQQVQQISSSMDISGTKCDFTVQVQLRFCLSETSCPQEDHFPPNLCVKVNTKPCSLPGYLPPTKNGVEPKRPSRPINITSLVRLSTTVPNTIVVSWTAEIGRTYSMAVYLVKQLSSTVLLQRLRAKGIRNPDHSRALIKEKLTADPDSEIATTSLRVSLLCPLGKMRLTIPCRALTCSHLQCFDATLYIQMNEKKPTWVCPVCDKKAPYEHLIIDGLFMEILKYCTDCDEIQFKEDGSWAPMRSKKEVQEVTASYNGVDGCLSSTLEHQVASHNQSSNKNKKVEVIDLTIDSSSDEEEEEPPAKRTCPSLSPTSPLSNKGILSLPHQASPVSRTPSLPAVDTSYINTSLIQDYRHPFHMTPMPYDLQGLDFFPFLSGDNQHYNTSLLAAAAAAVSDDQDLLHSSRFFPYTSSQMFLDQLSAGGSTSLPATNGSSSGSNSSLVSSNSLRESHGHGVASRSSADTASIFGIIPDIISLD

Row | Variant | effect of a mutation on the interaction
1 | K238A | decreasing interaction
